T1: Recombinant human FGFR4/Fc chimera (R&D Systems Cat #685 FR) (human, UniProt P22455 22-369)
T1 construct: extracellular domain; Bought reagent; also called Fc-FGFR4; not shown: Fc part of the bought chimera (detected with anti-human IgG)
T1 sequence (looked up): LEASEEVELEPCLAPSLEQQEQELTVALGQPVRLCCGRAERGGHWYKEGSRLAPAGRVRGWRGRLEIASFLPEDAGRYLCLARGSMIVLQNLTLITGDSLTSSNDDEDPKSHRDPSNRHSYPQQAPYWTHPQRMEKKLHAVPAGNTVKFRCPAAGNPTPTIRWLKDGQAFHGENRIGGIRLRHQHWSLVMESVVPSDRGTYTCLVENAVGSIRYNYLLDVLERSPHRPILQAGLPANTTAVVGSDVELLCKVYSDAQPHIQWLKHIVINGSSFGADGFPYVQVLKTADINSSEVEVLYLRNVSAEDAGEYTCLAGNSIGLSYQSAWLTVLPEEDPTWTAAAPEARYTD


target: T2, Recombinant human PDGFRβ/Fc chimera (R&D Systems Cat #385 PR) (human, UniProt P09619 33-532); test: phage ELISA on PDGFRβ-Fc (0.1 ug/ml) captured by coated anti-human IgG, detection with HRP anti-M13
T2 construct: extracellular domain; Bought reagent; also called PDGFRP-Fc; not shown: Fc part of the bought chimera (captured and detected with anti-human IgG)
T2 sequence (P09619 33-532, change not shown): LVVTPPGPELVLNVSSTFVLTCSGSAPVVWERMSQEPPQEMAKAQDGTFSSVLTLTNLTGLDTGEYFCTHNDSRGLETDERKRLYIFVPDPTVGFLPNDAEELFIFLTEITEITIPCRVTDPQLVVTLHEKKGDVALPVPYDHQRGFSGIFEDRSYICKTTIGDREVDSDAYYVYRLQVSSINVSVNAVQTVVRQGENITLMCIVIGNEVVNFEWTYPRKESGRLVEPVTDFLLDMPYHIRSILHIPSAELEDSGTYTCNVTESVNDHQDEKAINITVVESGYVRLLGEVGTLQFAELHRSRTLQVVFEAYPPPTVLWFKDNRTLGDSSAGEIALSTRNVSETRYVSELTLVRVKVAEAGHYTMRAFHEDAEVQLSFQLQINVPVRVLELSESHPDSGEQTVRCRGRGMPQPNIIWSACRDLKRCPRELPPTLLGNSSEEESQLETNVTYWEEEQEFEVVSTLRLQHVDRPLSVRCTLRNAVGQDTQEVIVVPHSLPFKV
Method: (§1) In order to determine binding specificity to PDGFRβ-Fc, the clones were tested in an ELISA binding assay setup, using the monoclonal phage pools. Shortly, 1 ug/ml of Fc-capturing Ab (Rabbit anti-human IgG, DAKO # A423) was coated on Maxisorp ELISA plates (Nunc) and free binding sites were blocked using 4% Marvel skimmed milk in PBS. Next, 0.1 ug/ml receptor in 2% Marvel/PBS was captured. After a wash step with PBS, 10 ul of supernatant from the monoclonal phage inductions of the different clones in 100 ul 2% Marvel PBS were allowed to bind to the captured PDGFRP-Fc. […] Binding specificity was determined based on OD values compared to controls having received no phage.

Row | binding result | Binder
1 | binds | 53-A3 (VHH, Purified Nanobody) VHH: EVQLVESGGGLVQPGGSLRLSCAASGSIVRVDFMGWYRQAPGKQREVVTFITSGGSPNYVDSVTGRFTISRDNAKNTMYLQMNSLKPEDTAVYYCYIQSGTAGSWGQGTQVTVSS

target: T1, Recombinant human FGFR4/Fc chimera (R&D …); test: competition ELISA: FGFR4-Fc with heparin and MgCl2 pre-mixed with Nanobody, binding to coated acidic FGF (129 nM), detection with HRP anti-human IgG
Method: Clones tested in the FGFR4 binding assay were also screened for their ability to block acidic FGF binding to FGFR4-Fc. For this, purified Nanobodies, were used in an ELISA-based ligand competition setup. In short, 2.0 ug/ml (129 nM) human FGF (R&D Systems Cat #232-FA/CF) was coated in 96 well Maxisorp microtiter plates (Nunc) and blocked with 4% Marvel skimmed milk in PBS. In parallel, 0.25 ug/ml (1.9 nM) FGFR4-Fc chimera plus 2.5 μg/ml heparin and 10 mM MgCl₂ were incubated with periplasmic extracts or purified Nanobody. After 1 hour, the receptor-Nanobody pre-mixes were incubated 1 hour with the coated ligand. Bound FGFR4-Fc was detected using HRP-conjugated goat anti-human IgG (Jackson Immunoresearch, Cat #109-035-098). Blocking activity was determined as loss of OD signal, as compared to wells where irrelevant Nanobody had been added. […] Ligand is coated at 129 nM and receptor is added at […].

Row | IC50 (read off the curve) | Binder
2 | ~8 nM | 55-D5 (VHH, Purified Nanobody) VHH: EVQLVESGGALVQPGGSLRLSCAASGFTFRNYDMSWVRQAPGKGPEWVSSINSGGGSTYYADSVKGRFTISRDNAKNTLYLQMNSLKPEDTAVYYCATGLITTAQAMLEEYDYWGQGTQVTVSS

target: T2, Recombinant human PDGFRβ/Fc chimera …; test: ELISA binding screen on captured PDGFRβ-Fc and ELISA ligand competition
Method: as §1
Clones tested in the PDGFRβ binding assay were also screened for their ability to block PDGF-BB binding to PDGFRβ-Fc. For this, Nanobody containing periplasmic extracts, or selected purified Nanobodies, were used in an ELISA-based ligand competition setup. In short, 1.0 ug/ml (80 nM) recombinant human PDGF-BB (R&D Systems #220-BB) was coated in 96 well Maxisorp microtiter plates (Nunc) and blocked with 4% Marvel skimmed milk in PBS. In parallel, 1 ug/ml (12 nM) PDGFRβ-Fc chimera was incubated with periplasmic extracts or purified Nanobody. After 1 hour, the receptor-Nanobody pre-mixes were incubated 1 hour with the coated ligand. Bound PDGFRβ-Fc was detected using HRP-conjugated goat anti-human IgG (Jackson Immunoresearch, Cat #109-035-098). Blocking activity was determined as loss of OD signal, as compared to wells where no Nanobodies, or irrelevant Nb, had been added.

Row | Binder | binding result
3 | 53-A6 (VHH) VHH: EVQLVESGGGLVQPGGSRRLSCATSASITSISFMGWYRQAPGKQRELVAFIPSSGVPNYVGFAEGRFTISRDDAKNTVYLQMNGLKPEDTAVYYCYLQPLGGSGSWGQGTQVTVSS | binds
4 | 53-F3 (VHH) VHH: EVQLVESGGGLVQPGGSLRLSCAAPGSIVSINNMGWYRQAPGKQRELVALITSGGTTTYADSVKGRFTISGDNAKKMVYLQMNSLKPEDTAVYYCNAVFTTDTRNWYDYWGQGTQVTVSS | binds
5 | 53-F7 (VHH) VHH: EVQLVESGGALVQPGGSLRLSCAASGSIVSIDFMGWYRQAPGKQREVVTFITSGGSPNYVDSVEGRFTISRDNAKNTMYLQMNSLKPEDTAVYYCYMQSGTAGSWGQGTQVTVSS | binds
6 | 53-B7 (VHH) VHH: EVQLVESGGGLVQAGGSLRLDCAASGRTSYAMGWFRQGTGKEREFVAALSPSGYYTYYEDSVKGRFSIHRDNAKNMVYLQMNSLTPEDTAVYYCAAGRHETASGILPNYWGQGIQVTVSS | binds
7 | 53-G8 (VHH) VHH: KVQLVESGGGLVQAGGSLRLDCAASGRTSYAMGWFRQGTGKEREFVSAISPSGYYTYYEDSVKGRFSIHRDNAKNMVYLQMNSLTPEDTAVYYCAAGRHQTVSGILPDYWGQGIQVTVSS | binds
8 | 53-C7 (VHH) VHH: EVQLVESGGGLVQAGGSLRLDCAASGRTSYAMGWFRQGTGQEREFVAAISPSGYYTYYEDSVKGRFNIHRDNTKNMVYLQMNSLTPEDTAVYYCAAGRHKTVSGILPDYWGQGIQVTVSS | binds
9 | 53-C4 (VHH) VHH: EVQLVESGGGLVQAGGSLRLDCAASGRTSYAMGWFRQGTGKEREFVAAISPSGYYTYYEDSVKGRFSIHRDNAKNMVYLQMNSLTPEDTAVYYCAAGRHQTVSGILPDYWGQGIQVTVSS | binds

The remaining lines, values ahead:

Row | binding result | Binder
10 | binds | 53-D6 (VHH) VHH: EVQLVESGGGLVEAGGSLRLSCTASGGTFSTYAMGWFRQAPGKEREFAAAISRNGGSKGYKESVKGRFTISRDNAKNTVYLQMNSLKPEDTAVYYCAASRTYTYSTAMKDYNYWGQGTQVTVSS
11 | binds | 53-G7 (VHH) VHH: EVQLVESGGGLVQAGGSLRLDCAASGRTSYAMGWFRQGTGKEREFVAAISPSGYYTYYEDSVKGRFFIHRDNAKNMVYLQMNSLTPEDTAVYYCAAGRHKTVSGILPDYWGQGIQVTVSS
12 | binds | 53-F9 (VHH) VHH: EVQLVESGGGLVQAGGSLRLDCAASGRTSYAMGWFRQGTGKEREFVAAISPSGYYTYYEDSVKGRFFMHRDNAKNMVYLQMNSLTPEDTAVYYCAAGRHNTVSGILPDYWGRGIQVTVSS

target: T2, Recombinant human PDGFRβ/Fc chimera …; test: competition ELISA: PDGFRβ-Fc (12 nM) pre-mixed with Nanobody, binding to coated PDGF-BB (80 nM), detection with HRP anti-human IgG
Method: In order to determine the receptor blocking efficiency of clones tested positive for PDGF-BB competition, a dilution series of purified Nanobodies were tested in the ELISA-based ligand competition setup. In short, 1.0 ug/ml (80 nM) recombinant human PDGF-BB (R&D Systems #220-BB) was coated in 96 well Maxisorp microtiter plates (Nunc) and blocked with 4% Marvel skimmed milk in PBS. In parallel, 1 ug/ml (12 nM) PDGFRβ-Fc chimera was incubated with a dilution series of purified Nanobodies. After 1 hour, the receptor-Nanobody pre-mixes were incubated 1 hour with the coated ligand. Bound PDGFRβ-Fc was detected using HRP-conjugated goat anti-human IgG (Jackson Immunoresearch, Cat # 109-035-098). […] Ligand is coated at 80 nM and receptor is added at 12 nM.

Row | IC50 (read off the curve) | Binder
13 | ~8 nM | 53-A5 (VHH, Purified Nanobody) VHH: EVQLVESGGGLVQAGGSLRLTCVVSGRTYNNYVMGWFRQAPGKEREFVAGIDWSSSWSSTLYADSVKGRFTISRNNAKKTVSLQMNSLKPEDTAVYYCAANLGSKNPSLRPGREAYNYWGQGTQVTVSS
14 | ~9 nM | 53-H8 (VHH, Purified Nanobody) VHH: EVQLVESGGGLVQAGGSLRLTCVVSGRTYNNYVMGWFRQAPGKEREFVAGIDWSSSWTSTTLYADSVKGRFTISRNNAKKTVSLQMNSLKPEDTAVYYCAANLGSKNPSLRPGRETYNYWGQGAQVTVSS
15 | ~60 nM | 53-G10 (VHH, Purified Nanobody) VHH: EVQLVESGGGLVQAGGSLRLSCAASGLFFSFYNMGWFRQAPGKEREFVAIIRKTGGSTYYADSVKGRFTISRDNAKNTVYLQMDSLKPEDTAVYYCAAASSYYSDSYYYTRSDKYNYWGQGTQVTVSS

target: T1, Recombinant human FGFR4/Fc chimera (R&D …); test: ELISA: periplasmic extract on coated FGFR4-Fc (500 ng/ml)
Method: In order to determine binding specificity to FGFR4, the clones were tested in an ELISA binding assay setup, using the monoclonal […]. Shortly, 500 ng/ml of Fc-FGFR4 (R&D Systems Cat #685 FR) was coated on Maxisorp ELISA plates (Nunc) and free binding sites were blocked using 4% Marvel skimmed milk in PBS. After a wash step with PBS, 10 ul of periplasmic extract from the monoclonal inductions of the different clones in 100 ul 2% Marvel PBS were allowed to bind to the FGFR4-Fc. […] 53-G3 was used as a reference since it was selected against PDGFRβ-Fc.

Row | binding result | Binder
16 | binds | 73-A7 (VHH, Purified Nanobody) VHH: EVQLVESGGGLVQPGGSLRLSCAASGFTFGSYDMSWVRQAPGKGPEWVSAINSGGGTTYYADSVKGRFTISRDNAKNTLYLQMNSLKPEDTAVYYCATGRPLWDYSDYADFGSWGQGTQVTVSS
17 | binds | 73-E6 (VHH, Purified Nanobody) VHH: EVQLVESGGGLVQAGGSLRLSCAASGSTFTETPFTMHALSWYRQSEGKERELVAAISLAGTTNYADSVKGRFTISRDNGKKAVYLQMNSLKAEDTAVYYCNVGSWFQGYYAMDYWGEGTLVTVSS
18 | binds | 55-B8 (VHH, Purified Nanobody) VHH: EVQLVESGGGLVQPGGSLRLSCTASTSIFSLYDMGWYRQAPGKERELVARITSGRSINYADSVKGRFTISRDNAKNTVYLQMNSLKPEDTAAYYCNANHHDWGTNWDFWGQGTQVTVSS
19 | binds | 73-A9 (VHH, Purified Nanobody) VHH: EVQLVESGGGLVQPGESLSLSCTASGSAFGINSMGWYRQAPGKERELVAVMYSDSNTTYTDSVKGRFTISRDYAKNTVYLRMNSLKPEDTAVYFCHCEAIREPGDYYGWHYWGKGTLVTVSS
